± gives the uncertainty stated by the source.
Assay: self-splicing fitness, log relative to wild type (ln ratio); higher = more splicing; Tetrahymena group I intron in knt gene, E. coli kanamycin selection, DiMSum; sequences stand for … in CUCUCU…GGAGGGAAAAGUUAUCAGGCAUGCACCUGGUAGCUAGUCUUUAAACCAAUAGAUUGCAUCGGUUUAAAAGGCAAGACCGUCAAAUUGCGGGAAAGGGGUCAACAGCCGUUCAGUACCAAGUCUCAGGGGAAACUUUGAGAUGGCCUUGCAAAGGGUAUGGUAAUAAGCUGACGGACAUGGUCCUAACCACGCAGCCAAGUCCUAAGUCAACAGAUCUUCUGUUGAUAUGGAUGCAGUUCACAGACUAAAUGUCGGUCGGGGAAGAUGUAUUCUUCUCAUAAGAUAUAGUCGGACCUCUCCUUAAUGGGAGCUAGCGGAUGAAGUGAUGCAACACUGGAGCCGCUGGGAACUAAUUUGUAUGCGAAAGUAUAUUGAUUAGUUUUGGAGUACUCGUGGUCG
Method in brief: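 Colonies from six replicate transformations of E. coli BL21(DE3) were pooled and amplicon-sequenced on an Illumina HiSeq 2500. The library placed an intron with all eight P1ex-region nucleotides randomised inside the knt kanamycin-resistance gene on pET-22b(+), and cells grew overnight at 37°C or 30°C on LB agar with or without 25 μg/mL kanamycin (plus 100 μg/mL carbenicillin, 50 μM IPTG, 0.2% rhamnose). Fitness is the DiMSum error-weighted combination of wild-type-normalised replicate fold changes, kanamycin versus none.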

| Sequence | self-splicing fitness (ln) (30 °C) | self-splicing fitness (ln) (37 °C) |
| --- | --- | --- |
| GGGUAGCAAUAUUACGGACA | -0.93 ± 0.093 | -0.223 ± 0.097 |
| GGGUAGCAAUAUUACGGCAU | -0.0241 ± 0.076 | -0.23 ± 0.096 |
| GGGUAGCAAUAUUACGGGCU | -0.35 ± 0.081 | 0.282 ± 0.13 |
| GGGUAGCAAUAUUACGGGUG | -4.22 ± 0.36 | -2.68 ± 0.22 |
| GGGUAGCAAUAUUACGGUAU | -2.11 ± 0.13 | -0.598 ± 0.14 |
| GGGUAGCAAUAUUACGGUGG | -2.55 ± 0.27 | -1.61 ± 0.33 |
| GGGUAGCAAUAUUACGUGCA | -0.359 ± 0.12 | -0.483 ± 0.14 |
| GGGUAGCAAUAUUACGUUCC |  | -2.09 ± 0.46 |
| GGGUAGCAAUAUUACGUUGC | -3.63 ± 0.33 | -0.334 ± 0.22 |
| GGUAAGCAAUAUUACGAAAA | -2.86 ± 0.43 | -0.969 ± 0.34 |
| GGUAAGCAAUAUUACGAAGU | -1.93 ± 0.31 | -1.78 ± 0.25 |
| GGUAAGCAAUAUUACGACGC | 0.697 ± 0.17 | 0.22 ± 0.21 |
| GGUAAGCAAUAUUACGAUAU | -0.847 ± 0.15 | 0.242 ± 0.2 |
| GGUAAGCAAUAUUACGAUGC | -0.616 ± 0.13 | -0.401 ± 0.16 |
| GGUAAGCAAUAUUACGAUGU | -1.2 ± 0.061 | -0.805 ± 0.074 |
| GGUAAGCAAUAUUACGCCAG | -4.42 ± 0.27 | -2.13 ± 0.29 |
| GGUAAGCAAUAUUACGCCUA | -0.917 ± 0.088 | -0.737 ± 0.091 |
| GGUAAGCAAUAUUACGCCUU | -1.49 ± 0.15 | -0.81 ± 0.15 |
| GGUAAGCAAUAUUACGCGCA | -0.159 ± 0.074 | -0.401 ± 0.085 |
| GGUAAGCAAUAUUACGCGGG | -3.28 ± 0.17 | -2.02 ± 0.2 |

| Sequence | self-splicing fitness (ln) (30 °C) | self-splicing fitness (ln) (37 °C) |
| --- | --- | --- |
| GGUAAGCAAUAUUACGCUAC | -2.3 ± 0.4 | -2.23 ± 0.37 |
| GGUAAGCAAUAUUACGCUCG | -0.274 ± 0.13 | -0.892 ± 0.23 |
| GGUAAGCAAUAUUACGGACU | -1.43 ± 0.17 | -0.246 ± 0.2 |
| GGUAAGCAAUAUUACGGAGG |  | -3.58 ± 0.42 |
| GGUAAGCAAUAUUACGGAGU | -3.39 ± 0.22 | -1.73 ± 0.18 |
| GGUAAGCAAUAUUACGGCUA | 0.109 ± 0.085 | -0.0128 ± 0.11 |
| GGUAAGCAAUAUUACGGGGU |  | -2.57 ± 0.25 |
| GGUAAGCAAUAUUACGGGUG | -3.24 ± 0.12 | -1.85 ± 0.088 |
| GGUAAGCAAUAUUACGUACC | -3.79 ± 0.44 |  |
| GGUAAGCAAUAUUACGUCAC | -2.85 ± 0.24 | -2.04 ± 0.23 |
| GGUAAGCAAUAUUACGUCAG | -3.79 ± 0.34 | -2.52 ± 0.39 |
| GGUAAGCAAUAUUACGUGGC | -2.67 ± 0.15 | -1.29 ± 0.16 |
| GGUAAGCAAUAUUACGUGUG | -2.8 ± 0.16 | -2.61 ± 0.16 |
| GGUCAGCAAUAUUACGAAUC | -0.132 ± 0.14 | 0.365 ± 0.13 |
| GGUCAGCAAUAUUACGACCC | -2.52 ± 0.27 | -2.43 ± 0.41 |
| GGUCAGCAAUAUUACGACUA | 0.124 ± 0.092 | 0.866 ± 0.13 |
| GGUCAGCAAUAUUACGAGCU | -0.647 ± 0.097 | -0.497 ± 0.12 |
| GGUCAGCAAUAUUACGAUAU | 0.154 ± 0.071 | 0.391 ± 0.082 |
| GGUCAGCAAUAUUACGCAAU | -0.0569 ± 0.099 | 0.16 ± 0.12 |

Reference: the supplement of paper PMC7877785
